{
  "source": "patent USRE41461E1",
  "about": "“Purification, composition and specificity of Heparinase I, II, and III from Flavobacterium heparinum” (Massachusetts Institute of Technology, priority 1992, dated 2010)",
  "molecules": {"B1": {"name": "Heparin lyase II: heparin lyase II (heparinase II, no EC number) purified to homogeneity from Flavobacterium heparinum (protein, UniProt C6XZB6 26-772, looked up)", "Heparin and heparin-sulfate …": "QTKADVVWKDVDGVSMPIPPKTHPRLYLREQQVPDLKNRMNDPKLKKVWADMIKMQEDWKPADIPEVKDFRFYFNQKGLTVRVELMALNYLMTKDPKVGREAITSIIDTLETATFKPAGDISRGIGLFMVTGAIVYDWCYDQLKPEEKTRFVKAFVRLAKMLECGYPPVKDKSIVGHASEWMIMRDLLSVGIAIYDEFPEMYNLAAGRFFKEHLVARNWFYPSHNYHQGMSYLNVRFTNDLFALWILDRMGAGNVFNPGQQFILYDAIYKRRPDGQILAGGDVDYSRKKPKYYTMPALLAGSYYKDEYLNYEFLKDPNVEPHCKLFEFLWRDTQLGSRKPDDLPLSRYSGSPFGWMIARTGWGPESVIAEMKVNEYSFLNHQHQDAGAFQIYYKGPLAIDAGSYTGSSGGYNSPHNKNFFKRTIAHNSLLIYDPKETFSSSGYGGSDHTDFAANDGGQRLPGKGWIAPRDLKEMLAGDFRTGKILAQGFGPDNQTPDYTYLKGDITAAYSAKVKEVKRSFLFLNLKDAKVPAAMIVFDKVVASNPDFKKFWLLHSIEQPEIKGNQITIKRTKNGDSGMLVNTALLPDAANSNITSIGGKGKDFWVFGTNYTNDPKPGTDEALERGEWRVEITPKKAAAEDYYLNVIQIADNTQQKLHEVKRIDGDKVVGVQLADRIVTFSKTSETVDRPFGFSVVGKGTFKFVMTDLLPGTWQVLKDGKILYPALSAKGDDGALYFEGTEGTYRFLR"}, "B2": {"name": "Heparin lyase III: heparin lyase III (heparitinase EC 4.2.2.8) purified to homogeneity from Flavobacterium heparinum (protein, UniProt Q59289 25-659, looked up)", "Heparin-sulfate lyase": "QSSSITRKDFDHINLEYSGLEKVNKAVAAGNYDDAAKALLAYYREKSKAREPDFSNAEKPADIRQPIDKVTREMADKALVHQFQPHKGYGYFDYGKDINWQMWPVKDNEVRWQLHRVKWWQAMALVYHATGDEKYAREWVYQYSDWARKNPLGLSQDNDKFVWRPLEVSDRVQSLPPTFSLFVNSPAFTPAFLMEFLNSYHQQADYLSTHYAEQGNHRLFEAQRNLFAGVSFPEFKDSPRWRQTGISVLNTEIKKQVYADGMQFELSPIYHVAAIDIFLKAYGSAKRVNLEKEFPQSYVQTVENMIMALISISLPDYNTPMFGDSWITDKNFRMAQFASWARVFPANQAIKYFATDGKQGKAPNFLSKALSNAGFYTFRSGWDKNATVMVLKASPPGEFHAQPDNGTFELFIKGRNFTPDAGVFVYSGDEAIMKLRNWYRQTRIHSTLTLDNQNMVITKARQNKWETGNNLDVLTYTNPSYPNLDHQRSVLFINKKYFLVIDRAIGEATGNLGVHWQLKEDSNPVFDKTKNRVYTTYRDGNNLMIQSLNADRTSLNEEEGKVSYVYNKELKRPAFVFEKPKKNAGTQNFVSIVYPYDGQKAPEISIRENKGNDFEKGKLNLTLTINGKQQLVLVP"}},
  "key": {"[1]": {"test": "Activity remaining after incubation in buffers for 24 h at 37° C.", "type": "physicochemical", "procedure": "The buffer giving optimum activity for each heparin lyase was selected by testing buffers with buffering capacity near the pH optima calculated in the previous experiments. These buffers were: Tris-HCl, sodium phosphate, HEPES, MOPS, TES, and BTP-CHl. Each buffer was prepared at 50 mM, and its pH was adjusted with hydrochloric acid or sodium hydroxide to 6.9 for heparin lyase II acting on heparin, 7.15 for heparin lyase I, 7.3 for heparin lyase II acting on heparan sulfate, and 7.6 for heparin lyase III. The heparin lyase assay solutions were made by diluting enzyme in 50 mM sodium phosphate buffer adjusted to the appropriate pH as previously described. Heparin lyase activity was determined in each buffer. Activity was assayed both immediately after addition to each buffer and following incubation for 24 h at 37° C."}, "[2]": {"test": "Isoelectric focusing on agarose gel", "type": "physicochemical", "conditions": "agarose IEF", "procedure": "IEF gel electrophoresis was run on pre-cast agarose gels (85×100 mm). Two electrode wicks were wetted with 1M phosphoric acid (anolyte) and 1M sodium hydroxide (catholyte). Electrophoresis was at 5 watts for 5 min, then at 10 watts for 1 h until the voltage was constant at 1200 V. The gel was immediately fixed in 15% aqueous trichloroacetic acid, blotted and rinsed with water, dried overnight, stained by using Coomassie G-250, and destained."}, "[3]": {"test": "Heparin lyase activity: effect of divalent metals and added salt, substrate specificity (each lyase on its substrates)", "type": "biochemical", "conditions": "for effect of calcium on activity (increase): 10 mM calcium chloride, 50 mM BTP-HCl; for effect of added salt on activity: increasing salt concentration, 0-500 mM", "procedure": "The spectrophotometer was adjusted to the optimum temperature of the particular lyase being assayed. A 700 μl quartz microcuvette containing 400 μg of substrate in 50 mM sodium phosphate buffer (containing 100 mM sodium chloride for heparin lyase I) was thermally equilibrated. A measured quantity of lyase was added, bringing the final volume to 400 μl and the cuvette was gently mixed. The microcuvette was then immediately returned to the spectrophotometer and the change of absorbance at 232 nm was measured at 10 seconds intervals over 3 min. The activity was measured from the change of absorbance/unit time using an extinction coefficient of 3800 M^−1 for products. The specific activity was then calculated by dividing the micromoles of product produced per minute by the milligrams of protein in the cuvette. The molecular weights used for heparin, heparan sulfate, and the chondroitin sulfates were 14,000, 20,000 and 25,000, respectively, Rice, K. G., and Linhardt, R. J. (1989) Carbohydr. Res. 190, 219-233. Protein concentration was measured by the Bradford assay, Bradford, M. M. (1976) Anal. Biochem. 72, 248-254, based on a bovine serum albumin standard curve.\nBTP-HCl buffer (50 mM) was prepared containing either 10 mM calcium chloride, 10 μM or 1 mM copper (II) chloride, 10 μM and 1 mM mercury (II) chloride, and 1 mM zinc (II) chloride. Each solution was adjusted to the optimum pH for the lyase being tested, and the activity of the heparin lyases was measured in the presence and absence of divalent metals.\nThe salt concentration for optimum activity was investigated. Sodium chloride, potassium chloride, and sodium and potassium acetate were used to differentiate between ionic strength and specific ion affects. Added salt concentrations varied between 0 and 500 mM and were prepared in 50 mM sodium phosphate buffer after which the pH was adjusted to each enzyme's optimum and the heparin lyase activity was measured.\nEach heparin lyase was added to a solution of complex polysaccharides (1 mg/ml) under optimized assay conditions, and the reaction was monitored at 232 nm for 30 min. The amount of purified lyase used was sufficient for complete depolymerization of heparin or heparan sulfate substrates within 30 min. The initial rate of depolymerization of each polysaccharide was measured, the reaction was then continued for 24 h, and the final level of polysaccharide depolymerization was assessed by measuring the final absorbance at 232 nm and expressed as percent activity."}, "[4]": {"test": "Stability toward storage, freeze thawing and lyophilization", "type": "physicochemical", "procedure": "[…] […] These lyase solutions were then divided into 3 equal aliquots, and one of each was subjected to either freeze thawing, lyophilization, or retained as a control in an ice bath. The activities of heparin lyases I-III were determined in the presence and absence of excipients after: 1) brief storage at 4° C.; 2) freezing at −70° C. and thawing; and 3) −70° C. freezing, lyophilization, and reconstituting with an equal volume of cold water."}},
  "note": "Entries after “also recorded” stand apart in the source; their conditions may differ.",
  "data": [
    {"molecule": "B1", "values": [
      {"measurement": "retention of activity after incubation", "setting": "[1]; MOPS, TES, and HEPES, toward both heparin and heparan sulfate", "value": "30-70%"},
      {"measurement": "pI (isoelectric point)", "setting": "[2]", "value": "around 8.9"},
      {"measurement": "pI (isoelectric point)", "setting": "[2]; listed as heparin lyase II", "value": "8.9-9.1"},
      {"measurement": "substrates acted on", "setting": "[3]", "value": "act on both heparin and heparan sulfate"},
      {"measurement": "effect of calcium on activity (increase)", "setting": "[3]", "value": "dramatically reduced"},
      {"measurement": "effect of divalent metal ions on activity (all metals tested)", "setting": "[3]; acting on both heparin and heparan sulfate", "value": "inhibition by all of the metals tested except for 10 μM copper"},
      {"measurement": "effect of added salt on activity", "setting": "[3]", "value": "decrease in activity; also recorded: decreases"},
      {"measurement": "effect of added salt on activity", "setting": "[3]; listed as heparinase II", "value": "not observed"},
      {"measurement": "activity retained", "setting": "[4]; under all storage conditions", "value": "greater than 75%"}
    ]},
    {"molecule": "B2", "values": [
      {"measurement": "retention of activity after incubation", "setting": "[1]; MOPS and HEPES", "value": "15-30%"},
      {"measurement": "pI (isoelectric point)", "setting": "[2]", "value": "~9.2"},
      {"measurement": "pI (isoelectric point)", "setting": "[2]; listed as heparin lyase III", "value": "9.9-10.1"},
      {"measurement": "substrates acted on", "setting": "[3]", "value": "acts only on heparan sulfate"},
      {"measurement": "effect of copper on activity", "setting": "[3]; 10 μM copper (II) chloride", "value": "unaffected"},
      {"measurement": "effect of mercury on activity", "setting": "[3]; 10 μM mercury (II) chloride", "value": "unaffected"},
      {"measurement": "effect of copper on activity", "setting": "[3]; 1 mM copper (II) chloride", "value": "inhibited"},
      {"measurement": "effect of mercury on activity", "setting": "[3]; 1 mM mercury (II) chloride", "value": "inhibited"},
      {"measurement": "effect of zinc on activity", "setting": "[3]; 1 mM zinc (II) chloride", "value": "inhibited"},
      {"measurement": "effect of calcium on activity (increase)", "setting": "[3]", "value": 20, "unit": "%"},
      {"measurement": "effect of added salt on activity", "setting": "[3]", "value": "decrease in activity; also recorded: decreases"},
      {"measurement": "effect of added salt on activity", "setting": "[3]; listed as heparinase III", "value": "not observed"},
      {"measurement": "activity retained", "setting": "[4]; absence of excipient, stored at 4° C.", "value": "retains most of its activity"},
      {"measurement": "retention of activity", "setting": "[4]; addition of 5% lactose", "value": "destabilizes"},
      {"measurement": "activity lost", "setting": "[4]; on freeze-thawing or freeze-drying", "value": "70-80%"},
      {"measurement": "increase of recovered activity", "setting": "[4]; presence of BSA", "value": "20-25%"}
    ]}
  ]
}
